{"source": "patent US20240075134A1", "about": "(Seagen, published 2024)", "binders": {"B1": {"name": "SEA-CD40 (non-fucosylated humanized S2C6 antibody) (antibody, human IgG1, kappa)", "heavy": "not shown", "light": "DIQMTQSPSSLSASVGDRVTITCRSSQSLVHSNGNTFLHWYQQKPGKAPKLLIYTVSNRFSGVPSRFSGSGSGTDFTLTISSLQPEDFATYFCSQTTHVPWTFGQGTKVEIKRTVAAPSVFIFPPSDEQLKSGTASVVCLLNNFYPREAKVQWKVDNALQSGNSQESVTEQDSKDSTYSLSSTLTLSKADYEKHKVYACEVTHQGLSSPVTKSFNRGEC", "notes": "also called SEA40; non-fucosylated hS2C6; copies: 2 + 2"}, "B2": {"name": "dacetuzumab (fucosylated humanized S2C6) (antibody, human IgG1, kappa)", "heavy": "not shown", "light": "DIQMTQSPSSLSASVGDRVTITCRSSQSLVHSNGNTFLHWYQQKPGKAPKLLIYTVSNRFSGVPSRFSGSGSGTDFTLTISSLQPEDFATYFCSQTTHVPWTFGQGTKVEIKRTVAAPSVFIFPPSDEQLKSGTASVVCLLNNFYPREAKVQWKVDNALQSGNSQESVTEQDSKDSTYSLSSTLTLSKADYEKHKVYACEVTHQGLSSPVTKSFNRGEC", "notes": "also called SGN-40; SGN40; copies: 2 + 2"}}, "key": {"[1]": {"biological_target": "T1, human CD40 on the surface of PBMCs (human, UniProt P25942 21-277)", "T1 sequence (P25942 21-277)": "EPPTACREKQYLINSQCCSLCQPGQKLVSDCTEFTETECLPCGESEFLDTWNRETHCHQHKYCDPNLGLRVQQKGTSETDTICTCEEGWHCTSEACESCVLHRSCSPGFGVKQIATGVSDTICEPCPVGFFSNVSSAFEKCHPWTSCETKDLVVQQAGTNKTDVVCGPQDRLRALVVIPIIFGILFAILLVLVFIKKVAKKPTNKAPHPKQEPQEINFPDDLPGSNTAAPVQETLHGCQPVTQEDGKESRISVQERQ", "assay": "cell-based or functional assay"}, "[2]": {"biological_target": "T2, human FcγRIIIa, high affinity (158V) form, on CHO cells (human, UniProt P08637 17-254)", "T2 construct": "whole, on cells; Position 158 probably counts on the mature protein; also called FcγRIIIa 158V", "T2 sequence (P08637 17-254 F176V)": "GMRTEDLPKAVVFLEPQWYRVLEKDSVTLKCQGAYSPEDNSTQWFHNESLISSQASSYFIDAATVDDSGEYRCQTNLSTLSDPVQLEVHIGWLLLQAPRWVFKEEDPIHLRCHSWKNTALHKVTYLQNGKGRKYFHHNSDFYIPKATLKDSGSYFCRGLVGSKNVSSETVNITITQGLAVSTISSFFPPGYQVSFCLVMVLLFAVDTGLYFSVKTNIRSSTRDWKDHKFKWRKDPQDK", "assay": "flow cytometry, biotinylated antibody on CHO cells expressing FcγRIIIa 158V"}, "[3]": {"biological_target": "T3, human FcγRIIIa, low affinity (158F) form, on CHO cells (human, UniProt P08637 17-254)", "T3 construct": "whole, on cells; Allotype with F at position 158 as printed; also called FcγRIIIa 158F", "T3 sequence (P08637 17-254)": "as the sequence (P08637 17-254 F176V) above, with V160F counted along it", "assay": "flow cytometry, biotinylated antibody on CHO cells expressing FcγRIIIa 158F"}, "murine CD40": {"biological_target": "T4, murine CD40 (murine, UniProt P27512 20-193, limits assumed)", "T4 sequence (looked up)": "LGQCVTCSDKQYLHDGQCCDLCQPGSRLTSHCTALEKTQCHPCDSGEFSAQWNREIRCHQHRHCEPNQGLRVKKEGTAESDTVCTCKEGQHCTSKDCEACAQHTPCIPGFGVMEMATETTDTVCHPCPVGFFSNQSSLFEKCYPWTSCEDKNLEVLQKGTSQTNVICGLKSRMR", "assay": "not described"}, "[4]": {"biological_target": "T1, human CD40 on the surface of PBMCs", "assay": "cell-based or functional assay", "remark": "listed apart in the source"}}, "data": [{"binder": "B1", "values": [{"measurement": "EC50 of CD86 upregulation on PBMCs (24 hr)", "setting": "[1]", "result": 0.14, "unit": "µg/mL"}, {"measurement": "EC50 of MHCI upregulation on PBMCs (48 hr)", "setting": "[1]", "result": 0.011, "unit": "µg/mL"}, {"measurement": "EC50 of MHCII upregulation on PBMCs (24 hr)", "setting": "[1]", "result": 0.41, "unit": "µg/mL"}, {"measurement": "Kd", "setting": "[2]", "result": 5.2, "unit": "nM"}, {"measurement": "Kd", "setting": "[3]", "result": 27.5, "unit": "nM"}, {"measurement": "binding result", "setting": "murine CD40", "result": "no binding"}, {"measurement": "MHCII surface expression on PBMCs, ratio to SEA-h00; SEA-CD40 0.0001 µg/mL, 6 hrs", "setting": "[4]", "result": 0.85, "unit": "fold"}, {"measurement": "MHCII surface expression on PBMCs, ratio to SEA-h00; SEA-CD40 0.0001 µg/mL, 24 hrs", "setting": "[4]", "result": 1.05, "unit": "fold"}, {"measurement": "MHCII surface expression on PBMCs, ratio to SEA-h00; SEA-CD40 0.0001 µg/mL, 48 hrs", "setting": "[4]", "result": 0.99, "unit": "fold"}, {"measurement": "MHCII surface expression on PBMCs, ratio to SEA-h00; SEA-CD40 0.001 µg/mL, 6 hrs", "setting": "[4]", "result": 1, "unit": "fold"}, {"measurement": "MHCII surface expression on PBMCs, ratio to SEA-h00; SEA-CD40 0.001 µg/mL, 24 hrs", "setting": "[4]", "result": 1.07, "unit": "fold"}, {"measurement": "MHCII surface expression on PBMCs, ratio to SEA-h00; SEA-CD40 0.001 µg/mL, 48 hrs", "setting": "[4]", "result": 1.1, "unit": "fold"}, {"measurement": "MHCII surface expression on PBMCs, ratio to SEA-h00; SEA-CD40 0.01 µg/mL, 6 hrs", "setting": "[4]", "result": 0.9, "unit": "fold"}, {"measurement": "MHCII surface expression on PBMCs, ratio to SEA-h00; SEA-CD40 0.01 µg/mL, 24 hrs", "setting": "[4]", "result": 1.21, "unit": "fold"}, {"measurement": "MHCII surface expression on PBMCs, ratio to SEA-h00; SEA-CD40 0.01 µg/mL, 48 hrs", "setting": "[4]", "result": 1.38, "unit": "fold"}, {"measurement": "MHCII surface expression on PBMCs, ratio to SEA-h00; SEA-CD40 0.1 µg/mL, 6 hrs", "setting": "[4]", "result": 0.9, "unit": "fold"}, {"measurement": "MHCII surface expression on PBMCs, ratio to SEA-h00; SEA-CD40 0.1 µg/mL, 24 hrs", "setting": "[4]", "result": 1.19, "unit": "fold"}, {"measurement": "MHCII surface expression on PBMCs, ratio to SEA-h00; SEA-CD40 0.1 µg/mL, 48 hrs", "setting": "[4]", "result": 1.5, "unit": "fold"}, {"measurement": "MHCII surface expression on PBMCs, ratio to SEA-h00; SEA-CD40 1 µg/mL, 6 hrs", "setting": "[4]", "result": 1.14, "unit": "fold"}, {"measurement": "MHCII surface expression on PBMCs, ratio to SEA-h00; SEA-CD40 1 µg/mL, 24 hrs", "setting": "[4]", "result": 1.76, "unit": "fold"}, {"measurement": "MHCII surface expression on PBMCs, ratio to SEA-h00; SEA-CD40 1 µg/mL, 48 hrs", "setting": "[4]", "result": 1.57, "unit": "fold"}, {"measurement": "MHCII surface expression on PBMCs, ratio to SEA-h00; SEA-CD40 10 µg/mL, 6 hrs", "setting": "[4]", "result": 1.1, "unit": "fold"}, {"measurement": "MHCII surface expression on PBMCs, ratio to SEA-h00; SEA-CD40 10 µg/mL, 24 hrs", "setting": "[4]", "result": 1.62, "unit": "fold"}, {"measurement": "MHCII surface expression on PBMCs, ratio to SEA-h00; SEA-CD40 10 µg/mL, 48 hrs", "setting": "[4]", "result": 2.1, "unit": "fold"}, {"measurement": "MHCII surface expression on PBMCs, ratio to SEA-h00; SEA-CD40 100 µg/mL, 6 hrs", "setting": "[4]", "result": 1.13, "unit": "fold"}, {"measurement": "MHCII surface expression on PBMCs, ratio to SEA-h00; SEA-CD40 100 µg/mL, 24 hrs", "setting": "[4]", "result": 1.64, "unit": "fold"}, {"measurement": "MHCII surface expression on PBMCs, ratio to SEA-h00; SEA-CD40 100 µg/mL, 48 hrs", "setting": "[4]", "result": 2.1, "unit": "fold"}]}, {"binder": "B2", "values": [{"measurement": "Kd", "setting": "[2]", "result": 37.9, "unit": "nM"}, {"measurement": "Kd", "setting": "[3]", "result": 303, "unit": "nM"}]}]}
